# Test results taken from patent publication US20250262210A1 (TRUSTEES OF COLUMBIA UNIVERSITY IN THE CITY OF NEW YORK, published 2025).
# T1: ZCCHC6 (human, UniProt Q5VYS8 1-1495, limits assumed)
# T1 sequence (looked up): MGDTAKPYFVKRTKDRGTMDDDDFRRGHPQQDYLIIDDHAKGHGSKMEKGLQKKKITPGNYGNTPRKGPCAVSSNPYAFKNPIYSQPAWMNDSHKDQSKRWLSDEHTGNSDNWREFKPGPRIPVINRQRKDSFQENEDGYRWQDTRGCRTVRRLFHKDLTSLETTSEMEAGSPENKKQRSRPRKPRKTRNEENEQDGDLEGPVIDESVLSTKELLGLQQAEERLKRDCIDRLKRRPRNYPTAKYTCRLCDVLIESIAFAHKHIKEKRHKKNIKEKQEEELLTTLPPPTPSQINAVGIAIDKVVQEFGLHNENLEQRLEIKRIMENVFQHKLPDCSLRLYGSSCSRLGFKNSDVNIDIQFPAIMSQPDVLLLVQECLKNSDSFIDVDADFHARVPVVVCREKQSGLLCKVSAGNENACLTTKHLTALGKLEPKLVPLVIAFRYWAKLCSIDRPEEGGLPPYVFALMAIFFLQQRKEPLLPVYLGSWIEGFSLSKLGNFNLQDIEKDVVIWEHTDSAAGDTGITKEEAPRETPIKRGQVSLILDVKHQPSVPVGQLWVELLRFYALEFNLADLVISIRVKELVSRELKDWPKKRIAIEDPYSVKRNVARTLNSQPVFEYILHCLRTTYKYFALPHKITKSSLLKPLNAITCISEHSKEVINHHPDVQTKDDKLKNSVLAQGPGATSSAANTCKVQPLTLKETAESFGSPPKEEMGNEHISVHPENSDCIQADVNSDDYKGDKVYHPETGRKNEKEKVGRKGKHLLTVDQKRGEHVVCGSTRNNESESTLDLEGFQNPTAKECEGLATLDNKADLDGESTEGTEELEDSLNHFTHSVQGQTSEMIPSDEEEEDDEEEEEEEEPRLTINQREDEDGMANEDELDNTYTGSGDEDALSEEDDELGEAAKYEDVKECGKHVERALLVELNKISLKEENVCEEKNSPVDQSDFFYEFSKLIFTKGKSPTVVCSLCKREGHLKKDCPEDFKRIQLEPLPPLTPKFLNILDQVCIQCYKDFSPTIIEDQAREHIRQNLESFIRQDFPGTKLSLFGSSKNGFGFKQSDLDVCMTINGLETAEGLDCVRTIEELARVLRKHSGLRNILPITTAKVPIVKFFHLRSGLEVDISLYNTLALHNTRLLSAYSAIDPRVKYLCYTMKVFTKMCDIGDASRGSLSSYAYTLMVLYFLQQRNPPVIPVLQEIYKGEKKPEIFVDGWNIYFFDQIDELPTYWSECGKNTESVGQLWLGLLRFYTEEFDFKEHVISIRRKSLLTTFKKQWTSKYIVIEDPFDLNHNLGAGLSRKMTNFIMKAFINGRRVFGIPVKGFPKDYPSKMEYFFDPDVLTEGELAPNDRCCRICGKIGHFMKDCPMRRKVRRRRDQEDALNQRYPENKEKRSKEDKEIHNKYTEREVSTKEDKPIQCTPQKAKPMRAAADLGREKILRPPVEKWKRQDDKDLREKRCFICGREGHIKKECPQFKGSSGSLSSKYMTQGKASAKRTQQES
# B1: LZTR1-FLAG (other, human, UniProt Q8N653 1-840, looked up)
# chain: MAGPGSTGGQIGAAALAGGARSKVAPSVDFDHSCSDSVEYLTLNFGPFETVHRWRRLPPCDEFVGARRSKHTVVAYKDAIYVFGGDNGKTMLNDLLRFDVKDCSWCRAFTTGTPPAPRYHHSAVVYGSSMFVFGGYTGDIYSNSNLKNKNDLFEYKFATGQWTEWKIEGRLPVARSAHGATVYSDKLWIFAGYDGNARLNDMWTIGLQDRELTCWEEVAQSGEIPPSCCNFPVAVCRDKMFVFSGQSGAKITNNLFQFEFKDKTWTRIPTEHLLRGSPPPPQRRYGHTMVAFDRHLYVFGGAADNTLPNELHCYDVDFQTWEVVQPSSDSEVGGAEVPERACASEEVPTLTYEERVGFKKSRDVFGLDFGTTSAKQPTQPASELPSGRLFHAAAVISDAMYIFGGTVDNNIRSGEMYRFQFSCYPKCTLHEDYGRLWESRQFCDVEFVLGEKEECVQGHVAIVTARSRWLRRKITQARERLAQKLEQEAAPVPREAPGVAAGGARPPLLHVAIREAEARPFEVLMQFLYTDKIKYPRKGHVEDVLLIMDVYKLALSFQLCRLEQLCRQYIEASVDLQNVLVVCESAARLQLSQLKEHCLNFVVKESHFNQVIMMKEFERLSSPLIVEIVRRKQQPPPRTPLDQPVDIGTSLIQDMKAYLEGAGAEFCDITLLLDGHPRPAHKAILAARSSYFEAMFRSFMPEDGQVNISIGEMVPSRQAFESMLRYIYYGEVNMPPEDSLYLFAAPYYYGFYNNRLQAYCKQNLEMNVTVQNVLQILEAADKTQALDMKRHCLHIIVHQFTKVSKLPTLRSLSQQLLLDIIDSLASHISDKQCAELGADI
# notes: Expressed in HEK 293T, HeLa or U87 cells; used as cell lysate; also called LZTR1 wild type-FLAG; LZTR1 WT; not shown: FLAG tag at the C-terminus
# Biological target: T1, ZCCHC6
# Assay: IP/MS, LZTR1 wild type-FLAG, U87
# Outline: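 Read-out: spectral counts from LC-MS/MS (Orbitrap Fusion) after MaxQuant identification. Variable modifications were Met oxidation, protein N-terminal acetylation and N/Q deamidation.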
binder,measurement,value
B1,binding result,binds
